The record followed here is article PMC2752054.

As a reminder, the Kd is a measure of binding affinity in units of concentration. Read a low Kd as higher affinity.

In data set [1] the target is T1, N-HisPurβ (Purine-rich element binding protein B) (UniProt O35295 1-324).
T1 sequence: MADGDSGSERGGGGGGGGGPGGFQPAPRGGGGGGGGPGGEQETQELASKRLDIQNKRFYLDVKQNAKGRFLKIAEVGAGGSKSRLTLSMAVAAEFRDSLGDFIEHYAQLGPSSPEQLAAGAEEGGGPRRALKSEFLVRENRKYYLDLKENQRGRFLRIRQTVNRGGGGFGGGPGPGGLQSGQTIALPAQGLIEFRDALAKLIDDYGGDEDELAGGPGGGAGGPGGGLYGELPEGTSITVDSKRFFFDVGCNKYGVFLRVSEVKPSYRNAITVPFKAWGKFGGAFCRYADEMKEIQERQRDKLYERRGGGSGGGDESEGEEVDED
Kind of data set: competition.

Data set [2] has as its target T1, N-HisPurβ (Purine-rich element binding …). Nature of the data set: EMSA. Background: Mobility shift assays separate free from complexed probe on a gel.
Data set [3] has the same target. Nature of the data set: competition. This is another data set of the same source.
Data set [4] shares this target. Kind of data set: competition. The source holds these as a separate data set.
Data set [5] has the same target. Kind of data set: competition. The source holds these as a separate data set.
Data set [6] shares this target. Kind of data set: competition. This is another data set of the same source.
Data set [7] has the same target. Kind of data set: competition. The source holds these as a separate data set.

Where two headings read alike, the source gives them in different places.

For the molecule GGGAGCAGAACAGAGGAATGCAGTGGAAGAGA (ssDNA) [PE32-F (PE32-F*, PE32-bF, PE32-F-3FLC)], the binding signal in data set [1] is 1 fold IC50 (reference). This molecule also gave a Kd in data set [2] of about 0.3 nM.
Consider TTTTTTTGAACAGTTTTTTTCAGTTTTTTTTA (ssDNA) [PE32-F-3I5T7], for which the binding result in data set [3] is recorded as “no binding”.
Turning to TTTTTTTGAACAGAGGAATGCAGTGGAAGAGA (ssDNA) [PE32-F-5T7], the binding signal in data set [4] was ~4 fold IC50 increase vs PE32-F.
For the molecule TTTTTTTTTTTTTTTTTTTTTTTTTTTTTTTT (ssDNA) [dT32], in data set [5], the binding result is recorded as “no binding”.
As for TTTTTTTGAACAGAGGAATGCAGTTTTTTTTA (ssDNA) [PE32-F-35T7], in data set [6], the binding signal is > 50 fold IC50 increase vs PE32-F.
Regarding GGGAGCAGAACAGTTTTTTTCAGTGGAAGAGA (ssDNA) [PE32-F-IT7], the binding result in data set [7] is “binds”.
For the molecule GGGAGCAGAACAGAGGAATGCAGTTTTTTTTA (ssDNA) [PE32-F-3T7], the binding result in data set [7] was “binds”.
